Legend:
[1] = target: FLAME-1-D341A (in vitro translated, 35S-labeled)
[2] = target: FLAME-1 (in vitro translated, 35S-labeled)

Protein	cleavage of 35S-labeled FLAME-1-D341A (SDS-PAGE, autoradiography) [1]	cleavage of 35S-labeled FLAME-1 into p39 and p12 (SDS-PAGE, autoradiography) [2]
caspase-10 (Mch4), purified recombinant (protein) VKTFLEALPRAAVYRMNRNHRGLCVIVNNHSFTSLKDRQGTHKDAEILSHVFQWLGFTVHIHNNVTKVEMEMVLQKQKCNPAHADGDCFVFCILTHGRFGAVYSSDEALIPIREIMSHFTALQCPRLAEKPKLFFIQACQGEEIQPSVSIEADALNPEQAPTSLQDSIPAEADFLLGLATVPGYVSFRHVEEGSWYIQSLCNHLKKLVPRHEDILSILTAVNDDVSRRVDKQGTKKQMPQPAFTLRKKLVFPVPLDALSL	a D to A mutation in this site prevents these caspases from cleaving FLAME-1	in vitro translated FLAME-1 can be cleaved by several caspases including CPP32, Mch2, Mch3, Mch4, MchS and ICH-1 to generate two fragments (p39 and pl2)
caspase-6 (Mch2), purified recombinant (protein) AFYKREMFDPAEKYKMDHRRRGIALIFNHERFFWHLTLPERRGTCADRDNLTRRFSDLGFEVKCFNDLKAEELLLKIHEVSTVSHADADCFVCVFLSHGEGNHIYAYDAKIEIQTLTGLFKGDKCHSLVGKPKIFIIQACRGNQHDVPVIPLDVVDNQTEKLDTNITEVDAASVYTLPAGADFLMCYSVAEGYYSHRETVNGSWYIQDLCEMLGKYGSSLEFTELLTLVNRKVSQRRVDFCKDPSAIGKKQVPCFASMLTKKLHFFPKSN	a D to A mutation in this site prevents these caspases from cleaving FLAME-1	in vitro translated FLAME-1 can be cleaved by several caspases including CPP32, Mch2, Mch3, Mch4, MchS and ICH-1 to generate two fragments (p39 and pl2)
caspase-2 (ICH-1), purified recombinant (protein) GPVCLQVKPCTPEFYQTHFQLAYRLQSRPRGLALVLSNVHFTGEKELEFRSGGDVDHSTLVTLFKLLGYDVHVLCDQTAQEMQEKLQNFAQLPAHRVTDSCIVALLSHGVEGAIYGVDGKLLQLQEVFQLFDNANCPSLQNKPKMFFIQACRGDETDRGVDQQDGKNHAGSPGCEESDAGKEKLPKMRLPTRSDMICGYACLKGTAAMRNTKRGSWYIEALAQVFSERACDMHVADMLVKVNALIKDREGYAPGTEFHRCKEMSEYCSTLCRHLYLFPGHPPT	a D to A mutation in this site prevents these caspases from cleaving FLAME-1	in vitro translated FLAME-1 can be cleaved by several caspases including CPP32, Mch2, Mch3, Mch4, MchS and ICH-1 to generate two fragments (p39 and pl2)
caspase-7 (Mch3), purified recombinant (protein) AKPDRSSFVPSLFSKKKKNVTMRSIKTTRDRVPTYQYNMNFEKLGKCIIINNKNFDKVTGMGVRNGTDKDAEALFKCFRSLGFDVIVYNDCSCAKMQDLLKKASEEDHTNAACFACILLSHGEENVIYGKDGVTPIKDLTAHFRGDRCKTLLEKPKLFFIQACRGTELDDGIQADSGPINDTDANPRYKIPVEADFLFAYSTVPGYYSWRSPGRGSWFVQALCSILEEHGKDLEIMQILTRVNDRVARHFESQSDDPHFHEKKQIPCVVSMLTKELYFSQ		in vitro translated FLAME-1 can be cleaved by several caspases including CPP32, Mch2, Mch3, Mch4, MchS and ICH-1 to generate two fragments (p39 and pl2)
caspase-3 (CPP32), purified recombinant (protein) SGISLDNSYKMDYPEMGLCIIINNKNFHKSTGMTSRSGTDVDAANLRETFRNLKYEVRNKNDLTREEIVELMRDVSKEDHSKRSSFVCVLLSHGEEGIIFGTNGPVDLKKITNFFRGDRCRSLTGKPKLFIIQACRGTELDCGIETDSGVDDDMACHKIPVEADFLYAYSTAPGYYSWRNSKDGSWFIQSLCAMLKQYADKLEFMHILTRVNRKVATEFESFSFDATFHAKKQIPCIVSMLTKELYFYH		in vitro translated FLAME-1 can be cleaved by several caspases including CPP32, Mch2, Mch3, Mch4, MchS and ICH-1 to generate two fragments (p39 and pl2)
caspase-8 (Mch5), purified recombinant (protein) SESQTLDKVYQMKSKPRGYCLIINNHNFAKAREKVPKLHSIRDRNGTHLDAGALTTTFEELHFEIKPHDDCTVEQIYEILKIYQLMDHSNMDCFICCILSHGDKGIIYGTDGQEAPIYELTSQFTGLKCPSLAGKPKVFFIQACQGDNYQKGIPVETDSEEQPYLEMDLSSPQTRYIPDEADFLLGMATVNNCVSYRNPAEGTWYIQSLCQSLRERCPRGDDILTILTEVNYEVSNKDDKKNMGKQMPQPTFTLRKKLVFPSD	a D to A mutation in this site prevents these caspases from cleaving FLAME-1	in vitro translated FLAME-1 can be cleaved by several caspases including CPP32, Mch2, Mch3, Mch4, MchS and ICH-1 to generate two fragments (p39 and pl2)

Reference: US20020086983
